The results in this text go back to patent US20080020994.

For this series, the system named is purified wild-type Gα13 pre-loaded with GDP.
purified wild-type Gα13 pre-loaded with GDP, sequence (chain, as listed by the source): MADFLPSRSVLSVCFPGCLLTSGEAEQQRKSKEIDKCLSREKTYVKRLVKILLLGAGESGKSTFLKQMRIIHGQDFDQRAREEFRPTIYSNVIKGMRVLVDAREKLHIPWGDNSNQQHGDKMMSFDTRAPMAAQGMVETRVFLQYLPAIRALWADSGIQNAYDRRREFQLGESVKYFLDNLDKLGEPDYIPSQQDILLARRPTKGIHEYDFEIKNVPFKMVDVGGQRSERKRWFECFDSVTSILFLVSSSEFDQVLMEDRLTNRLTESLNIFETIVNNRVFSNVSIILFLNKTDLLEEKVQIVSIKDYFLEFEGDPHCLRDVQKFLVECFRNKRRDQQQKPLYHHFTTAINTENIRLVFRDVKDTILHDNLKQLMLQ

On to purified Rac1(GTPγS), for which the “guanine nucleotide exchange or GTPase activity” value is given as “No significant changes in these activities were examined”.
